Target: ACE2 receptor on ACE2-expressing HEK 293T cells (UniProt Q9BYF1)
Assay: flow cytometry on cells

Sequence of UniProt Q9BYF1 (Q9BYF1 18-805): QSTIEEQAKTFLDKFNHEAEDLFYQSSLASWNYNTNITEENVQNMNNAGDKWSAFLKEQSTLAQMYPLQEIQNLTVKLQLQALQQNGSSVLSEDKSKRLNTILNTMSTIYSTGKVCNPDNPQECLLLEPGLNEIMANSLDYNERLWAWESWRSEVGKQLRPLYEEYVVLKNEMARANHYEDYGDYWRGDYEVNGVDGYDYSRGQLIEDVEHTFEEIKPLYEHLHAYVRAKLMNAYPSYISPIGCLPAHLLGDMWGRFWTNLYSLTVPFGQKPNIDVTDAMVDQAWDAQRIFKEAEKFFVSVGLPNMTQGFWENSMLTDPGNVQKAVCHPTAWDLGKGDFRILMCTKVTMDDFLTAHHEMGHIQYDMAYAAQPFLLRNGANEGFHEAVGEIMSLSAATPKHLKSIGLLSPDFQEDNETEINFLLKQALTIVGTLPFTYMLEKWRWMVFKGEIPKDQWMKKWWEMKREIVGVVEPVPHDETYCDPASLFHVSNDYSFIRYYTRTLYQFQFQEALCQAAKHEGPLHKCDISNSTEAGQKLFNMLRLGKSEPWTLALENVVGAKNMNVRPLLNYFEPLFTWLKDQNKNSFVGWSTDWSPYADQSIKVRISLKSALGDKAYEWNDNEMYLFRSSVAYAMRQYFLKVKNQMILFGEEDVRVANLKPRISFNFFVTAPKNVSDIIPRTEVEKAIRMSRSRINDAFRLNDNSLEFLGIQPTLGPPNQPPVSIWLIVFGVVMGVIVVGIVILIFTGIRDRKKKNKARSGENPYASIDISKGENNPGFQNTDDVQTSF

## DNA-VLP-Cy5-30x (icosahedral DNA origami displaying 30 copies of the SARS-CoV-2 RBD and 5 copies of Cy5)
  fold increase in median fluorescence intensity (corrected for Cy5 brightness per RBD) against monomeric RBD-Cy5: 10 fold

From article PMC10828404
